The supplement of paper PMC9112550, “Optimization of the antimicrobial peptide Bac7 by deep mutational scanning” (BMC Biology, 2022)

System: Escherichia coli TOP10
Assay: shrunken log2 fold change of peptide-encoding DNA abundance (4.5 h post-induction vs induction); higher = less antimicrobial activity (less host growth inhibition)
Conditions: time post-induction: 4.5 h; library: site-saturation at positions 5, 18, 19, 20
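Further: peptides expressed intracellularly from a pBAD plasmid library in pooled LB shake-flask culture, induced with 0.3% L-arabinose, DNA abundance read by NGS, three biological replicates, DESeq2 with apeglm shrinkage.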

Row | Sequence | shrunken log2 fold change
1 | RRIRIRPPRLPRPRPRPYSSPRP | -0.239
2 | RRIRSRPPRLPRPRPRPVGCPRP | 0.281
3 | RRIRFRPPRLPRPRPRPAIKPRP | -0.328
4 | RRIRTRPPRLPRPRPRPDYVPRP | -0.0882
5 | RRIRLRPPRLPRPRPRPQGPPRP | -0.191
6 | RRIRVRPPRLPRPRPRPPTPPRP | 0.548
7 | RRIRCRPPRLPRPRPRPPLVPRP | 0.584
8 | RRIRNRPPRLPRPRPRPGSNPRP | -0.0081
9 | RRIRFRPPRLPRPRPRPNNFPRP | -0.383
10 | RRIRRRPPRLPRPRPRPSSSPRP | 0.133
11 | RRIRARPPRLPRPRPRPFLTPRP | 0.085
12 | RRIRMRPPRLPRPRPRPRTMPRP | 0.926
13 | RRIRRRPPRLPRPRPRPAASPRP | 0.38
14 | RRIRCRPPRLPRPRPRPQAQPRP | 0.315
15 | RRIRGRPPRLPRPRPRPEPCPRP | 0.795
16 | RRIRCRPPRLPRPRPRPKMYPRP | -0.342
17 | RRIRQRPPRLPRPRPRPRTTPRP | 0.218
18 | RRIRYRPPRLPRPRPRPSWSPRP | -0.179
19 | RRIRGRPPRLPRPRPRPQTWPRP | 0.0175
20 | RRIRQRPPRLPRPRPRPVTVPRP | 0.153

Row | Sequence | shrunken log2 fold change
21 | RRIRDRPPRLPRPRPRPFTQPRP | -0.147
22 | RRIRQRPPRLPRPRPRPFWCPRP | 0.0825
23 | RRIRERPPRLPRPRPRPSHEPRP | -0.0595
24 | RRIRCRPPRLPRPRPRPPHSPRP | 0.395
25 | RRIRNRPPRLPRPRPRPIREPRP | -0.0204
26 | RRIRNRPPRLPRPRPRPRYLPRP | -0.547
27 | RRIRHRPPRLPRPRPRPDMWPRP | -0.175
28 | RRIRMRPPRLPRPRPRPVQDPRP | 0.32
29 | RRIRARPPRLPRPRPRPRIFPRP | 0.213
30 | RRIRKRPPRLPRPRPRPWKPPRP | -0.243
31 | RRIRYRPPRLPRPRPRPVHDPRP | -0.372
32 | RRIRCRPPRLPRPRPRPFQPPRP | -0.281
33 | RRIRMRPPRLPRPRPRPLKGPRP | -0.0357
34 | RRIRGRPPRLPRPRPRPRWAPRP | 0.702
35 | RRIRCRPPRLPRPRPRPNGRPRP | 0.0604
36 | RRIRDRPPRLPRPRPRPASFPRP | 0.136
37 | RRIRTRPPRLPRPRPRPRESPRP | 0.207
38 | RRIRPRPPRLPRPRPRPSWCPRP | 0.108
39 | RRIRHRPPRLPRPRPRPATDPRP | -0.185
40 | RRIRGRPPRLPRPRPRPPVIPRP | -0.0488

Row | Sequence | shrunken log2 fold change
41 | RRIRTRPPRLPRPRPRPQIFPRP | -0.716
42 | RRIRIRPPRLPRPRPRPENYPRP | -0.405
43 | RRIRTRPPRLPRPRPRPIQPPRP | 0.00206
44 | RRIRFRPPRLPRPRPRPYGSPRP | -0.182
45 | RRIRFRPPRLPRPRPRPHWFPRP | -0.0545
46 | RRIRNRPPRLPRPRPRPRGIPRP | -0.0954
47 | RRIRARPPRLPRPRPRPRAIPRP | 0.358
48 | RRIRKRPPRLPRPRPRPEMFPRP | 0.0732
49 | RRIRGRPPRLPRPRPRPKRNPRP | 0.624
50 | RRIRPRPPRLPRPRPRPARSPRP | 0.315
51 | RRIRYRPPRLPRPRPRPRKFPRP | -1.72
52 | RRIRYRPPRLPRPRPRPLADPRP | -0.213
53 | RRIRERPPRLPRPRPRPKVVPRP | -0.0857
54 | RRIRLRPPRLPRPRPRPQALPRP | -0.042
55 | RRIRMRPPRLPRPRPRPQYWPRP | -0.194
56 | RRIRSRPPRLPRPRPRPWFHPRP | -0.664
57 | RRIRQRPPRLPRPRPRPACDPRP | 0.0239
58 | RRIRQRPPRLPRPRPRPSHHPRP | 0.0184
59 | RRIRLRPPRLPRPRPRPIMEPRP | -0.193
60 | RRIRDRPPRLPRPRPRPILNPRP | -0.184
